Molecular target: GST-fused core106 (HCV core, residues 1-106) (hepatitis C virus (genotype not stated))
Assay: AlphaScreen or HTRF; GST-core106 and Flag-core106 at 150 nM each; glutathione donor beads and anti-Flag acceptor beads 20 ug/ml; room temperature; protein buffer 100 mM HEPES pH 7.5, 1 mM EDTA, 5 mM DTT, 0.1% CHAPS, 10% glycerol; untagged core106 added as reference inhibitor

## HCV core106 (1-106 residues), untagged core106 domain (domain or fragment)
  percent inhibition of core dimerization: 91%
